# Earlier results in article PMC12455926.
# Biological target: AXL (Homo sapiens) (UniProt P30530)
substance,measurement,value
Spike protein NTD (from UniProt P0DTC2),Kd,882 nM
